Laboratory results published in PMC5761276.

Legend:
[1] = biological target: LAT-FYFF (monovalent LAT1Y, residue 48-233), phosphorylated (UniProt O43561); experiment: single-molecule dwell time analysis
[2] = biological target: LAT-FYFF (monovalent LAT1Y, residue 48-233), phosphorylated (UniProt O43561); experiment: ITC

koff [1]: 3.4 s⁻¹
relative on-rate (against LAT-FFFY:Grb2 = 1) [1]: 1.25
Kd [2]: 463 nM
dH [2]: -15 kcal/mol
Substance: Grb2-Alexa Fluor 647 (from UniProt P62993 1-217) (natural protein)
